“Also recorded” adds a separate entry of the source.
How the values were obtained:
[1] = system: ITPR1 phosphorylation (pITPR1) at Ser-1755; assay: forskolin-induced ITPR1 phosphorylation (pITPR1) in transfected HEK293 cells; format: cell-based, human; conditions: 1 μM forskolin; for forskolin-induced ITPR1 phosphorylation (pITPR1), western blot: overexpression vs empty vector; for pITPR1 by IHC in response to forskolin: vs empty vector (AAV-null)
Protocol: Cell culture and transfections: Human neuronal-derived (e.g., NBL), human non-neuronal derived (e.g., HEK293) cells, or dispersed rodent primary DRG cells can be used. HEK293 cells (cat #CRL-1573 ATCC Manassas, VA) were cultured in Dulbecco's modified Eagle's medium (DMEM-Glutamax cat #0566; Invitrogen) supplemented with 10% fetal bovine serum, FBS (cat #16140 ThermoFisher scientific, Waltham, MA) and 1% penicillin/streptomycin (cat #15140 ThermoFisher scientific, Waltham, MA). Cells were seeded in six-well plates at density of 1.0×10^5 cells per well. The following day, cells were transfected with plasmids via lipofectamine LTX reagent and plus (cat #15338 ThermoFisher scientific, Waltham, MA). For each transfection 2 μg of AAV2-ITR (control), AAV2-V5-Car10, or AAV2-V5-CA10 vectors was used. In various embodiments of the disclosure described herein, 2 μg of expression vectors (including positive and negative controls) in instances when AAV2 is not the viral vector employed.
Immunohistochemistry (IHC): HEK293 cells were seeded in poly-L-Lysine/laminin coated glass coverslips at a density of per coverslip, 24 hrs later cells were transfected with Car10, CA10 or empty vector respectively. Cells were cultured at 37° C. for an additional 96 hrs, then treated with forskolin 1 μM (F6886 Sigma, St. Louis, MO) for 5 min, then fixed with 4% paraformaldehyde for 15 min, permeabilized with 0.1% Triton X-100 for 10 min, and blocked with 1% bovine serum albumin (BSA, sigma) for 1 h. Cells were then incubated with anti-pITPR1 (cat #8548s cell signaling technology), anti-Car10 (cat #SAB1102286 Sigma, St Louis, MO), anti-V5 (cat #R960 Invitrogen), anti-ITPR1 (cat #8568 Cell Signaling technology) antibody overnight at 4° C. The next day, cells were incubated with the corresponding second antibody (1:200) for 1 h at room temperature in the dark. Coverslips were dried and affixed to slides using a fluorescent mounting medium containing Dapi (cat #P36931 Life Technologies). It will be understood that IHC methods also are contemplated using anti-Car8, anti-CA8, anti-CA8 fragment (CA8-204), anti-CA10, anti-Car11 and anti-CA11 antibodies.
HEK293 cells were transfected using AAV8-V5 vectors overexpressing Car10 and CA10, an empty vector and vehicle served as controls. A V5 sequence was inserted at the Car10 or CA10 C-terminal region in order to differentiate between exogenous and endogenous CA10/Car10 expression. […] Using the V5 tag, protein overexpression was detected following V5-Car10 and V5-CA10 vector transfection (FIG. 1B).
In order to examine the role of CA10 in the regulation of ITPR1 phosphorylation (pITPR1) that enhances the response of ITPR1 to the IP3 ligand, HEK293 cells were transfected with AAV8-V5-CA10 vectors. […]

[2] = system: neuropathic (Chung) mouse pain model; assay: neuropathic (Chung, spinal nerve ligation) mouse pain model, mechanical withdrawal threshold (von Frey); format: in vivo, C57BL/6J mice; conditions: sciatic nerve injection; spinal nerve ligation on Day 19
Protocol: Sciatic nerve injection of expression vectors (adeno-associated AAV8-V5-Car10 and AAV8-V5-CA10 vectors): Mice were anesthetized by intraperitoneal injection of Ketamine, xylazine and acepromazine cocktail (VEDCO, Saint Joseph, MO). Following sciatic nerve exposure, about 1.5 μl viral particles of AAV8-null (1.36E^13 viral particles, SL100832 SignaGen Laboratories Rockville, MD), AAV8-V5-Car10 and AAV8-V5-CA10 (1.06E^14 viral particles and 1.66E^14 viral particles, respectively) were injected into the sciatic nerve using a 35-gauge Nanofil needle (World Precision Instruments, Sarasota, FL). The sciatic injection site was approximately 45 mm from the tip of the third toe.
Neuropathic pain model: For the induction of peripheral neuropathy, mice were first anesthetized by an intraperitoneal injection of ketamine, xylazine hydrochloride and acepromazine (VEDCO, Saint Joseph, MO). […]
Behavioral tests: Thermal and mechanical sensitivity was measured by Hargreaves test and von Frey filament threshold calculations respectively. […] The mouse hind paw was pressed with one of a series of von Frey filaments with logarithmically incrementing stiffness (Stoelting Co, Wood Dale, IL) presented perpendicular to the plantar surface of each hind paw for 1-2 seconds, the 50% threshold was determined using the Up- and Down method.

Molecule	forskolin-induced ITPR1 phosphorylation (pITPR1), western blot [1]	pITPR1 by IHC in response to forskolin [1]	mechanical withdrawal threshold [2]
Car10: carbonic anhydrase 10, rodent ortholog, overexpressed (V5-tagged) protein (protein, left off: small tags and cut ends, carbonic anhydrase 10, rodent ortholog, overexpressed (V5-tagged) protein) MEIVWEVLFLLQANFIVCISAQQNSPKIHEGWWAYKEVVQGSFVPVPSFWGLVNSAWNLCSVGKRQSPVNIETSHMIFDPFLTPLRINTGGRKVSGTMYNTGRHVSLRLDKEHLVNISGGPMTYSHRLEEIRLHFGSEDSQGSEHLLNGQAFSGEVQLIHYNHELYTNVTEAAKSPNGLVVVSIFIKVSDSSNPFLNRMLNRDTITRITYKNDAYLLQGLNIEELYPETSSFITYDGSMTIPPCYETASWIIMNKPVYITRMQMHSLRLLSQNQPSQIFLSMSDNFRPVQPLNNRCIRTNINFSLQGKDCPNNRAQKLQYRVNEWLLK	reduced forskolin-induced ITPR1 phosphorylation; also recorded: inhibited forskolin-induced pITPR1	no increase in pITPR1	prevents mechanical hyperalgesia
CA10: human carbonic anhydrase 10, overexpressed (V5-tagged) protein; SEQ ID NO: 9 (protein, V5 tag) MEIVWEVLFLLQANFIVCISAQQNSPKIHEGWWAYKEVVQGSFVPVPSFWGLVNSAWNLCSVGKRQSPVNIETSHMIFDPFLTPLRINTGGRKVSGTMYNTGRHVSLRLDKEHLVNISGGPMTYSHRLEEIRLHFGSEDSQGSEHLLNGQAFSGEVQLIHYNHELYTNVTEAAKSPNGLVVVSIFIKVSDSSNPFLNRMLNRDTITRITYKNDAYLLQGLNIEELYPETSSFITYDGSMTIPPCYETASWIIMNKPVYITRMQMHSLRLLSQNQPSQIFLSMSDNFRPVQPLNNRCIRTNINFSLQGKDCPNNRAQKLQYRVNEWLLK	reduced forskolin-induced ITPR1 phosphorylation; also recorded: inhibited forskolin-induced pITPR1	no increase in pITPR1	prevents mechanical hyperalgesia
